# Where no end group is shown, it is not given here. The star is where a group is joined. Biotin = O=C1N[C@H]2[C@H](CS[C@H]2CCCCC(=O)*)N1
# B1: Peptide A (biotin-Ser-Gly-Ser-Gly linked to 12 residues of the Ku80 C-terminus) (peptide)
# peptide: Biotin-SGSGEEAKKFLAPKDK
# B2: Peptide B (biotin-Ser-Gly-Ser-Gly linked to 12 residues of the Ku80 C-terminus) (peptide)
# peptide: Biotin-SGSGLAPKDKPSGDTA
# B3: Peptide C (biotin-Ser-Gly-Ser-Gly linked to 12 residues of the Ku80 C-terminus) (peptide)
# peptide: Biotin-SGSGPSGDTAAVFEEG
# B4: Peptide D (biotin-Ser-Gly-Ser-Gly linked to 12 residues of the Ku80 C-terminus) (peptide)
# peptide: Biotin-SGSGAVFEEGGDVDDL
# Tests used:
# DNA-PKcs [1] = target: T1, DNA-PKcs (Homo sapiens, UniProt P78527); assay: Peptide interaction assay with purified DNA-PKcs; type: binding; set-up: The starting material for purification of DNA-PKcs was HeLa NE; host or cells: HeLa nuclear extract; purified in house over Q Sepharose, heparin agarose, phenyl Sepharose and Mono-S; conditions: 50 mM and 100 mM KCl; streptavidin paramagnetic beads; silver-staining
# T1 sequence (P78527 whole entry): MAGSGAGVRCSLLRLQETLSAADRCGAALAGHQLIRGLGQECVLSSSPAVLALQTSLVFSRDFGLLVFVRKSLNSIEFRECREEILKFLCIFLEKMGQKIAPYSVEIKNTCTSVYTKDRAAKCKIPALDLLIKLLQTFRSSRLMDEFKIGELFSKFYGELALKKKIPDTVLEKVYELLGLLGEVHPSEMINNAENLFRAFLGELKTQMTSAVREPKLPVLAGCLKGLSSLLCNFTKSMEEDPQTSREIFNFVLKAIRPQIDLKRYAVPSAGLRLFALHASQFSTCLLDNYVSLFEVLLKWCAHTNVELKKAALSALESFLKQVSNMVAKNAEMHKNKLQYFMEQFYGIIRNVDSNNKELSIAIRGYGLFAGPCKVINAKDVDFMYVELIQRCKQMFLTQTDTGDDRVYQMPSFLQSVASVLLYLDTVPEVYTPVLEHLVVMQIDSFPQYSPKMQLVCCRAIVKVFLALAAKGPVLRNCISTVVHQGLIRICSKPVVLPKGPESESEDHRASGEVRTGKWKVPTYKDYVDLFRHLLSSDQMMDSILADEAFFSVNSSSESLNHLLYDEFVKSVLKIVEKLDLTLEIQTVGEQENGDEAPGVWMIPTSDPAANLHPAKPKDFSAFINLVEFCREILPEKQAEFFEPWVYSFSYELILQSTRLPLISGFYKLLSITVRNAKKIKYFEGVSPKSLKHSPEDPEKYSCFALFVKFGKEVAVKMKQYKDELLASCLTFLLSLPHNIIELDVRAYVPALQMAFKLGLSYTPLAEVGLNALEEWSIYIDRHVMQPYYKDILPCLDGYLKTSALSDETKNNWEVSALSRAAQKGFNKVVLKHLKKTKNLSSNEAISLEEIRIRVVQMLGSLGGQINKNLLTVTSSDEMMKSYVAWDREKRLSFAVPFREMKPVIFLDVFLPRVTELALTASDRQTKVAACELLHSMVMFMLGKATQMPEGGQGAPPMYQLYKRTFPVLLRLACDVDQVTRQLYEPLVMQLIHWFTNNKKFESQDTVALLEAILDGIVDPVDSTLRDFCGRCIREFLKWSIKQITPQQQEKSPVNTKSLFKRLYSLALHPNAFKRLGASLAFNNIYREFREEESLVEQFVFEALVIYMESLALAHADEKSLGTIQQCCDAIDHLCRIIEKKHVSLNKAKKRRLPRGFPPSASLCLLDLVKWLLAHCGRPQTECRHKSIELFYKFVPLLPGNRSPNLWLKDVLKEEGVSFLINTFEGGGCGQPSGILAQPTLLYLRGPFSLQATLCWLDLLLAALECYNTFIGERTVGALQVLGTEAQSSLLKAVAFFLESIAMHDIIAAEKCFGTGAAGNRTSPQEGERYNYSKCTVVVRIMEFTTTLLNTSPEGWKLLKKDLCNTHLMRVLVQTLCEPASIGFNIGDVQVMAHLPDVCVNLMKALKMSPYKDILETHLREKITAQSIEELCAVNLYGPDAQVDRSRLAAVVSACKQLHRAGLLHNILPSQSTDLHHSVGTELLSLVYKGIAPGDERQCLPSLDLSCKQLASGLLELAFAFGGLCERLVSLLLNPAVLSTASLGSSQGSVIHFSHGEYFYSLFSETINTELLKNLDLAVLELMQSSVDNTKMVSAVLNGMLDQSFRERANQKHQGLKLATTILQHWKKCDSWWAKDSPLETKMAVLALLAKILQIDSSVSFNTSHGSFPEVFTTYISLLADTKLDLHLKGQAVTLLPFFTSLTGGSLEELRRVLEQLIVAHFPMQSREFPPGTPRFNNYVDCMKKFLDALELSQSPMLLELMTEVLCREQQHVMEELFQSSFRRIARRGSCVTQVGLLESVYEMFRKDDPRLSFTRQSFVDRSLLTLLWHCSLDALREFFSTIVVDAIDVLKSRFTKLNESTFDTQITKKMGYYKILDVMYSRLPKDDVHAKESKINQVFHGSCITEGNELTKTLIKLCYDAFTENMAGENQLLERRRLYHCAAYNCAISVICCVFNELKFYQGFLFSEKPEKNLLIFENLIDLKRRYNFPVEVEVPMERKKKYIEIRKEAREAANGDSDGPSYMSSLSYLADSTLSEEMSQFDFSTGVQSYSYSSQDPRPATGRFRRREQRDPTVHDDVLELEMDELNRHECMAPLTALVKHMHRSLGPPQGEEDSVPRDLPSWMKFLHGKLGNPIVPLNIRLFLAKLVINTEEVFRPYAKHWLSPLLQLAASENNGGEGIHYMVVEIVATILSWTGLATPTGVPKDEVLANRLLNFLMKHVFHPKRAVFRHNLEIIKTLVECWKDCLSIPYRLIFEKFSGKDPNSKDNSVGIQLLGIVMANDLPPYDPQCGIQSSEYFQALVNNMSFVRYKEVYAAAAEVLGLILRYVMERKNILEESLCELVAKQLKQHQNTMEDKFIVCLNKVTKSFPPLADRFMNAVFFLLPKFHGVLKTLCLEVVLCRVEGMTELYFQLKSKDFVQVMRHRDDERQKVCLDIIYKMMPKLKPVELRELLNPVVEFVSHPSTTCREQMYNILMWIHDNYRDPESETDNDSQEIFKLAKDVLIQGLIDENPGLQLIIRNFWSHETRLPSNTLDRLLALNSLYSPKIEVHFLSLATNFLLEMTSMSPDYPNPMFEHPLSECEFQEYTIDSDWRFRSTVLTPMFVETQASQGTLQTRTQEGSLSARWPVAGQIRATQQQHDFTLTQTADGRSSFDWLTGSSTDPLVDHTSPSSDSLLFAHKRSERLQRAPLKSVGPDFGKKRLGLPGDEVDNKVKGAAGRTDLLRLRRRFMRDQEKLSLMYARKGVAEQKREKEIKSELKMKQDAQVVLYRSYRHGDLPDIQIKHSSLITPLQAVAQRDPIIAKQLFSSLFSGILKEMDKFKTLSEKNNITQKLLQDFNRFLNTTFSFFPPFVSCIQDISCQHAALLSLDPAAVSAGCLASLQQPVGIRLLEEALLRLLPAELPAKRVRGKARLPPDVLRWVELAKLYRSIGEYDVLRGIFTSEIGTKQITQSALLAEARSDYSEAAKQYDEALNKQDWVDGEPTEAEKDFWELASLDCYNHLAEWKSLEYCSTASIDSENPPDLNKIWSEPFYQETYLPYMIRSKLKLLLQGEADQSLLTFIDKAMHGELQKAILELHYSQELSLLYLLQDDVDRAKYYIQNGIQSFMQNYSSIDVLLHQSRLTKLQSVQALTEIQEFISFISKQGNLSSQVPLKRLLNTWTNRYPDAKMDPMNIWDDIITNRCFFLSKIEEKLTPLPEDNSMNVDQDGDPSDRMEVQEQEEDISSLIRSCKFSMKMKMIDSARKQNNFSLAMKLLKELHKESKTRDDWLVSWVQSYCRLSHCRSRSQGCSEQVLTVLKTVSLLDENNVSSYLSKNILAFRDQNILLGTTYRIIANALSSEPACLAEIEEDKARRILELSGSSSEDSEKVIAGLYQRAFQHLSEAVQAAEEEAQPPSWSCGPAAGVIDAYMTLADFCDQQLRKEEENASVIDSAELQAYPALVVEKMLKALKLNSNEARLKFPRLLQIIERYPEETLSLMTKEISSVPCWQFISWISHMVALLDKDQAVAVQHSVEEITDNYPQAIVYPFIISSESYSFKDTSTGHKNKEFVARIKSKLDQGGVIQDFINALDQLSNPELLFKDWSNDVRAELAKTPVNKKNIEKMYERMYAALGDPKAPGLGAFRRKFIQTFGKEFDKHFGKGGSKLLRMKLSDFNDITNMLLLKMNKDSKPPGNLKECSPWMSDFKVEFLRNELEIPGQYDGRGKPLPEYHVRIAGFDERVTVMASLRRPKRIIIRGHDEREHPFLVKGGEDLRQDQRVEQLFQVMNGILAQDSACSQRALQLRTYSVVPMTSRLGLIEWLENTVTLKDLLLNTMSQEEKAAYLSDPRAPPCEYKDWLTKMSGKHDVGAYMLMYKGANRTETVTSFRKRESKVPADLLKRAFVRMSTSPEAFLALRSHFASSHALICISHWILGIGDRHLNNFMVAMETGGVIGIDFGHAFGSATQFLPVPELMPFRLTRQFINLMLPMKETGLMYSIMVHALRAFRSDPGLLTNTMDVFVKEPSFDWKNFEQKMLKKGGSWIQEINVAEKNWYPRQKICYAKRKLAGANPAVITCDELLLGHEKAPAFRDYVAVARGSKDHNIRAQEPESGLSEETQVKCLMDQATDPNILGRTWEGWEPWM
# Procedure: 5 Peptides with the sequence Ser-Gly-Ser-Gly (SEQ ID NO:10) as a linker to 12 amino acid residues (SEQ ID NOS:1 and 12-15) derived from the sequence of Ku80 (see FIG. 5) were generated with a biotin moiety at the N-terminus (Khiron Technologies). Each peptide (2×10^11 moles) was incubated with either 400 ng (˜10^12 moles) of purified DNA-PKcs or 100 μg of crude HeLa NE in 100 μl (final) volume of Z′ buffer (see above for buffer composition). Binding reactions were incubated for 2.75 hours at 4° C., then a 100 μl suspension of para-magnetic beads, containing 1:5 dilution of Dynabeads (Dynal) in Z′ buffer, was added for a final 0.25 hour incubation. Dynabeads are conjugated with Streptavidin. The bead-protein complexes were be retrieved from the solution using a magnet and washed 5 times with 0.5 ml of Buffer X (see above for buffer composition). […]
# The inventors synthesised a series of peptides (Peptides A-E, SEQ ID NOS:1 and 12-15) derived in sequence from the extreme C-terminus of Ku80 (residues 609 to 733, SEQ ID NO:11: see FIG. 5 and Materials and Methods). […] The beads were recovered using a magnet, washed extensively in buffer containing the same concentration of KCl as the incubation buffer X (25 mM HEPES pH 7.5, 50 mM/100 mM KCl, 2 mM MgCl2, 0.4% NP-40), and the bound protein eluted in SDS-PAGE sample buffer, resolved on a 6% polyacrylamide gel and detected using silver-staining.
# DNA-PKcs [2] = target: T1, DNA-PKcs; assay: Peptide interaction assay with crude HeLa cell nuclear extract; type: binding; set-up: incubated with ˜100 μg (10 μl) of HeLa Cell nuclear extract (NE); host or cells: HeLa cell nuclear extract
# Procedure: (§1) 5 Peptides with the sequence Ser-Gly-Ser-Gly (SEQ ID NO:10) as a linker to 12 amino acid residues (SEQ ID NOS:1 and 12-15) derived from the sequence of Ku80 (see FIG. 5) were generated with a biotin moiety at the N-terminus (Khiron Technologies). Each peptide (2×10^11 moles) was incubated with either 400 ng (˜10^12 moles) of purified DNA-PKcs or 100 μg of crude HeLa NE in 100 μl (final) volume of Z′ buffer (see above for buffer composition). Binding reactions were incubated for 2.75 hours at 4° C., then a 100 μl suspension of para-magnetic beads, containing 1:5 dilution of Dynabeads (Dynal) in Z′ buffer, was added for a final 0.25 hour incubation. Dynabeads are conjugated with Streptavidin. The bead-protein complexes were be retrieved from the solution using a magnet and washed 5 times with 0.5 ml of Buffer X (see above for buffer composition). Proteins retained on the beads were eluted in SDS gel-loading buffer and subjected to polyacrylamide gel eletrophoresis and silver staining.
# The ability of each of the five peptides to retrieve proteins from a crude unfractionated HeLa cell nuclear extract was determined. […] Any proteins remaing bound to the peptide/beads was eluted in SDS-PAGE buffer, resolved on a 6% polyacrylamide gel and detected with silver-staining. […]
# [3] = target: T2, DNA-dependent protein kinase catalytic subunit (DNA-PKcs), human, from HeLa cell nuclear extract (human, UniProt P78527 1-4128); assay: biotinylated peptide with purified DNA-PKcs, streptavidin magnetic beads, 50 mM or 100 mM KCl, silver stain
# T2 construct: mature; Used either within crude HeLa nuclear extract or as an essentially homogeneous preparation (about 1 Ku per 840 DNA-PKcs molecules); also called purified DNA-PKcs; homogeneous DNA-PKcs
# T2 sequence (P78527 whole entry): as above
# Procedure: as §1, with “12–15)” for “12-15)”, “(2 ×10^11” for “(2×10^11”, “(~10^12” for “(˜10^12”, “Z'” for “Z′”
Molecule,binding of purified DNA-PKcs by biotinylated peptide (DNA-PKcs [1]),"proteins retrieved from HeLa nuclear extract by biotinylated peptide (DNA-PKcs [2]; 50 mM KCl, streptavidin magnetic beads, silver-staining, western blotting)",depletion of DNA-PKcs from HeLa nuclear extract (DNA-PKcs [2]; additional studies),binding result [3]
EGGDVDDLLDMI [Peptide E],interacts directly with DNA-PKcs,affinity purified predominantly a single protein species of high molecular weight,60-70%,
B1,,,,no binding
B2,,,,no binding
B3,,,,no binding
B4,,,,no binding

# Source: US6753151B1, “Interactions of Ku polypeptides and applications thereof” (Kudos Pharmaceuticals Limited, priority 1999, dated 2004)
